{"source": "patent US9815881B2", "about": "“Method of inducing labor or treating pre-eclampsia by administering relaxin analogs” (The Board of Trustees of the Leland Stanford Junior …, priority 2009, dated 2017)", "key": {"LGR7 [1]": {"molecular_target": "T1, LGR7 (Homo sapiens, UniProt Q9HBX9)", "T1 construct": "HEK293T cells stably expressing recombinant LGR7 or LGR8; expressed in transfected cells", "T1 sequence (Q9HBX9 1-757)": "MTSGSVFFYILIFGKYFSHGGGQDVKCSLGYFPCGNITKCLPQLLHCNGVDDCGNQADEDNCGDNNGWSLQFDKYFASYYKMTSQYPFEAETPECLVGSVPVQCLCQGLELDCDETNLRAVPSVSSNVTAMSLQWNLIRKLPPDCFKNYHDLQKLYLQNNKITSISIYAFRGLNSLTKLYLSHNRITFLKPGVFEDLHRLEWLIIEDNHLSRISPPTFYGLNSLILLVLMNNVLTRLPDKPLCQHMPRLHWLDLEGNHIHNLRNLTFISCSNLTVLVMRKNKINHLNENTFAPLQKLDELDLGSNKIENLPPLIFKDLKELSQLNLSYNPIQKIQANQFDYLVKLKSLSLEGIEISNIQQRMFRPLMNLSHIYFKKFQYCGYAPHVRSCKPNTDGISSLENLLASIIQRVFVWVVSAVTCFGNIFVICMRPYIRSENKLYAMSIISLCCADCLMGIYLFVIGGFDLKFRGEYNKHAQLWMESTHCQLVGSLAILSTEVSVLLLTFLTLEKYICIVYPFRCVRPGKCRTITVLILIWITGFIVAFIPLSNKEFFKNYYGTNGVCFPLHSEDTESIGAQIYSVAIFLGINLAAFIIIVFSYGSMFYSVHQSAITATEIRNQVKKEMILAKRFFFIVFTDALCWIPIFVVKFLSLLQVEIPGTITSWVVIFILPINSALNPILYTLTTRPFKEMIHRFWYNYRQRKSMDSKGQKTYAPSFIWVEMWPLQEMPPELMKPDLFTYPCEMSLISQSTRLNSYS", "test": "Receptor-activation analysis: cAMP production in LGR7-expressing HEK293T cells", "type": "cell-based", "conditions": "for pEC50 on the activation of LGR7: HEK293T cells stably expressing LGR7, mean ± S.E., ND = pEC50 not measurable; for LGR7-activation activity (result in words): LGR7-expressing HEK293T cells", "experimental": "(§1) The bioactivity of relaxin family peptides was determined based on the stimulation of adenylate cyclase activity in HEK293T cells stably expressing recombinant LGR7 or LGR8. Stable LGR7- or LGR8-expressing cells were maintained in Dulbecco's modified Eagle's medium/F-12 media supplemented with […] Zeocin (Invitrogen). After seeding at a density of 2×10^5 cells per well in 500 μl of Dulbecco's modified Eagle's medium/F-12 medium containing 0.1% bovine serum albumin in 48-well plates, cells were preincubated at 37° C. for 30 min in the presence of 0.25 mM 3-isobutyl-1-methylxanthine before treatment with increasing concentrations of peptides (from 0 to 100 nM) in quadruplicate. Twelve hours after treatment, the culture was reacted with acetic anhydride/triethylamine, and total cAMP content in cell lysates was measured using a specific cAMP radioimmunoassay. A nontagged human RLN2 peptide was used as a standard to verify the bioactivity of tagged RLN2 peptides.\n(§2) Receptor-activation and receptor binding activity curves generated in nonlinear regression analyses (Prism; GraphPad Software, San Diego, Calif.) were evaluated relative to the samples without hormone treatment. In all cases data are reported as the mean±S.E. of assays in triplicate or quadruplicate. Statistically significant responses (p<0.05) were determined for each stimulated response to the average nonspecific response from control samples using analysis of variance and Student's t test."}, "LGR8": {"molecular_target": "T2, LGR8 (Homo sapiens, UniProt Q8WXD0)", "T2 construct": "HEK293T cells stably expressing recombinant LGR7 or LGR8; expressed in transfected cells", "T2 sequence (Q8WXD0 whole entry)": "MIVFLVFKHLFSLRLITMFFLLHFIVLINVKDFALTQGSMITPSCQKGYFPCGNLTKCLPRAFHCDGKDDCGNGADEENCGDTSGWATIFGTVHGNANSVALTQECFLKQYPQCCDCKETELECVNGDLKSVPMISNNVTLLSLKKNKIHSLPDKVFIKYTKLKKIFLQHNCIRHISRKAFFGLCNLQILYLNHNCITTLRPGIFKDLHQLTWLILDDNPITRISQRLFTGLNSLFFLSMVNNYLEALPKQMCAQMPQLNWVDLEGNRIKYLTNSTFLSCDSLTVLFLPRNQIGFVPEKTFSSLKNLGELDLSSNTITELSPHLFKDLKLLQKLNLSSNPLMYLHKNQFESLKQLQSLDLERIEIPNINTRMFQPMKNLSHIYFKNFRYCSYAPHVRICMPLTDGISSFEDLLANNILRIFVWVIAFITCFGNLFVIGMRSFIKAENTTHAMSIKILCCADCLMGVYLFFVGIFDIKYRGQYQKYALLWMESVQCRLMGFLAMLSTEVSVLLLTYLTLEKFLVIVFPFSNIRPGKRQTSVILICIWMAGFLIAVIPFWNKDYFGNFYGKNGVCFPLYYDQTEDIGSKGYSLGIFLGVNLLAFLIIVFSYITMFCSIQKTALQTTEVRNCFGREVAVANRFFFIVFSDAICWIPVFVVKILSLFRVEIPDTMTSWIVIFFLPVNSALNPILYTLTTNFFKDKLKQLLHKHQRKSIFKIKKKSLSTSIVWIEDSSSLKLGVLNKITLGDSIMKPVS", "test": "Receptor-activation analysis: cAMP production in LGR8-expressing HEK293T cells", "type": "cell-based", "conditions": "for LGR8-activation activity (result in words): LGR8-expressing HEK293T cells", "experimental": "as §1, §2"}, "LGR7 [2]": {"molecular_target": "T1, LGR7", "test": "Receptor-binding assay: competition for 125I-labeled RLN2 binding to LGR7-expressing HEK293T cells", "conditions": "competition for labeled RLN2 binding to LGR7", "experimental": "To determine the binding characteristics of wild type and mutant peptides, HEK293T cells expressing LGR7 or LGR8 were grown to 90% confluence, collected by centrifugation at 3000×g for 2 min, and washed two times in 2 ml of ice-cold binding buffer. Cells were resuspended in ice-cold binding buffer, and aliquots of cell suspension were incubated with increasing doses of purified recombinant peptides in the presence of 0.025 pmol of ^125I-labeled RLN2 tracer (Phoenix Pharmaceuticals, Burlingame, Calif.) at room temperature for 2 h. After washing three times in an ice-cold binding buffer, radioactivity bound to the cells was measured using a γ-counter (EG&G Wallace, Gaithersburg, Md.). Total binding was determined in the absence, and nonspecific binding in the presence, of 25 nmol of unlabeled RLN2. In regular assays, total binding was ˜30,000 cpm, and nonspecific binding amounted to less than 20% of the total binding. Data points were collected in triplicate, and similar results were obtained in at least two independent assays.\nas §2"}}, "note": "Where no end group is shown, it is not given here."}
{"molecule": "RLN2 C-104: tagged RLN2 derived from the construct containing a 104-amino acid C domain sequence (chain 1 SWMEEVIKLCGRELVRAQIAICGMSTWSHHHHHH; chain 2 QLYSALANKCCHVGCTKRSLARFC; not fully specified; ends and bridges not checked)", "values": [{"measurement": "pEC50 on the activation of LGR7", "setting": "LGR7 [1]", "result": "8.74 ± 0.05"}]}
{"molecule": "RLN2 K^A17D: RLN2 mutant with aspartic acid at the LysA17 position (chain 1 SWMEEVIKLCGRELVRAQIAICGMSTWSHHHHHH; chain 2 QLYSALANKCCHVGCTDRSLARFC; not fully specified; ends and bridges not checked)", "values": [{"measurement": "LGR8-activation activity (result in words)", "setting": "LGR8", "result": "did not exhibit an enhanced LGR8-activation activity"}]}
{"molecule": "WT RLN2 (His1): recombinant wild type RLN2 with N-terminal Myc tag and His6 tag at the N or C terminus of the B chain (position 1) (chain 1 SWMEEVIKLCGRELVRAQIAICGMSTWS; chain 2 QLYSALANKCCHVGCTKRSLARFC; not fully specified; ends and bridges not checked; also: N-terminal Myc tag)", "values": [{"measurement": "pEC50 on the activation of LGR7", "setting": "LGR7 [1]", "result": "8.66 ± 0.09"}]}
{"molecule": "RLN2 R^B12A: RLN2 mutant with alanine substitution of ArgB12 in the B chain RXXXRXXI motif (chain 1 SWMEEVIKLCGAELVRAQIAICGMSTWSHHHHHH; chain 2 QLYSALANKCCHVGCTKRSLARFC; not fully specified; ends and bridges not checked)", "values": [{"measurement": "LGR8-activation activity (result in words)", "setting": "LGR8", "result": "abolished the LGR7- and LGR8-activation activities"}, {"measurement": "LGR7-activation activity (result in words)", "setting": "LGR7 [1]", "result": "abolished the LGR7- and LGR8-activation activities"}]}
{"molecule": "RLN2 K^A17A: RLN2 mutant with alanine substitution at LysA17 of the A chain (chain 1 SWMEEVIKLCGRELVRAQIAICGMSTWSHHHHHH; chain 2 QLYSALANKCCHVGCTARSLARFC; not fully specified; ends and bridges not checked)", "values": [{"measurement": "LGR8-activation activity (result in words)", "setting": "LGR8", "result": "significantly enhanced LGR8-activation activity"}, {"measurement": "LGR8-activation activity (result in words)", "setting": "LGR8; listed as RLN2 KA17A", "result": "high potencies on the activation of both LGR7 and LGR8"}, {"measurement": "LGR7-activation activity (result in words)", "setting": "LGR7 [1]", "result": "high potencies on the activation of both LGR7 and LGR8"}]}
{"molecule": "RLN2 R^B16A: RLN2 mutant with alanine substitution of ArgB16 in the B chain RXXXRXXI motif (chain 1 SWMEEVIKLCGRELVAAQIAICGMSTWSHHHHHH; chain 2 QLYSALANKCCHVGCTKRSLARFC; not fully specified; ends and bridges not checked)", "values": [{"measurement": "LGR8-activation activity (result in words)", "setting": "LGR8", "result": "abolished the LGR7- and LGR8-activation activities"}, {"measurement": "LGR7-activation activity (result in words)", "setting": "LGR7 [1]", "result": "abolished the LGR7- and LGR8-activation activities"}]}
{"molecule": "RLN2 C-28: tagged RLN2 from construct with B and A chains linked by a truncated C-domain of 28 amino acids (chain 1 SWMEEVIKLCGRELVRAQIAICGMSTWSHHHHHH; chain 2 QLYSALANKCCHVGCTKRSLARFC; not fully specified; ends and bridges not checked)", "values": [{"measurement": "pEC50 on the activation of LGR7", "setting": "LGR7 [1]", "result": "8.66 ± 0.07"}]}
{"molecule": "WT RLN3: recombinant wild type human relaxin 3 [reference compound]", "values": [{"measurement": "pEC50 on the activation of LGR7", "setting": "LGR7 [1]", "result": "7.73 ± 0.07"}, {"measurement": "LGR7-activation activity (result in words)", "setting": "LGR7 [1]", "result": "selectively activated"}]}
{"molecule": "RLN2 T^A16A: RLN2 mutant with alanine substitution at ThrA16 of the A chain (chain 1 SWMEEVIKLCGRELVRAQIAICGMSTWSHHHHHH; chain 2 QLYSALANKCCHVGCAKRSLARFC; not fully specified; ends and bridges not checked)", "values": [{"measurement": "LGR8-activation activity (result in words)", "setting": "LGR8", "result": "significantly enhanced LGR8-activation activity"}, {"measurement": "LGR8-activation activity (result in words)", "setting": "LGR8; listed as RLN2 TA16A", "result": "high potencies on the activation of both LGR7 and LGR8"}, {"measurement": "LGR7-activation activity (result in words)", "setting": "LGR7 [1]", "result": "high potencies on the activation of both LGR7 and LGR8"}]}
{"molecule": "RLN2 K^A17G: RLN2 mutant with glycine at the LysA17 position (chain 1 SWMEEVIKLCGRELVRAQIAICGMSTWSHHHHHH; chain 2 QLYSALANKCCHVGCTGRSLARFC; not fully specified; ends and bridges not checked)", "values": [{"measurement": "LGR8-activation activity (result in words)", "setting": "LGR8", "result": "did not exhibit an enhanced LGR8-activation activity"}]}
{"molecule": "WT RLN2 (His2): recombinant wild type RLN2 with N-terminal Myc tag and His6 tag at the N or C terminus of the B chain (position 2) (chain 1 SWMEEVIKLCGRELVRAQIAICGMSTWS; chain 2 QLYSALANKCCHVGCTKRSLARFC; not fully specified; ends and bridges not checked; also: N-terminal Myc tag)", "values": [{"measurement": "pEC50 on the activation of LGR7", "setting": "LGR7 [1]", "result": "8.77 ± 0.10"}]}
{"molecule": "RLN2 C-8: Myc- and His6-tagged RLN2 from construct with a truncated C-domain of 8 amino acids (chain 1 SWMEEVIKLCGRELVRAQIAICGMSTWSHHHHHH; chain 2 QLYSALANKCCHVGCTKRSLARFC; ends and bridges not checked; also: Myc tag, not in given chain)", "values": [{"measurement": "LGR7-binding activity (result in words)", "setting": "LGR7 [2]", "result": "high affinity"}]}
{"molecule": "RLN2^A19-20: RLN2 mutant with alanine substitution at the A19-20 positions of the A chain (chain 1 SWMEEVIKLCGRELVRAQIAICGMSTWSHHHHHH; chain 2 QLYSALANKCCHVGCTKRAAARFC; not fully specified; ends and bridges not checked)", "values": [{"measurement": "LGR7-activation activity (result in words)", "setting": "LGR7 [1]", "result": "decreased LGR7-activation activities"}]}
{"molecule": "RLN2 C-18: tagged RLN2 from construct with B and A chains linked by a truncated C-domain of 18 amino acids (chain 1 SWMEEVIKLCGRELVRAQIAICGMSTWSHHHHHH; chain 2 QLYSALANKCCHVGCTKRSLARFC; not fully specified; ends and bridges not checked)", "values": [{"measurement": "pEC50 on the activation of LGR7", "setting": "LGR7 [1]", "result": "8.74 ± 0.09"}]}
{"molecule": "RLN2 K^A17Q: RLN2 mutant with glutamine at the LysA17 position (chain 1 SWMEEVIKLCGRELVRAQIAICGMSTWSHHHHHH; chain 2 QLYSALANKCCHVGCTQRSLARFC; not fully specified; ends and bridges not checked)", "values": [{"measurement": "LGR8-activation activity (result in words)", "setting": "LGR8", "result": "did not exhibit an enhanced LGR8-activation activity"}]}
{"molecule": "WT INSL3: recombinant wild type human insulin-like 3 (protein, left off: small tags and cut ends) chain 1: PTPEMREKLCGHHFVRALVRVCGGPRWSTEAHHHHHH chain 2: AAATNPARYCCLSGCTQQDLLTLCPY", "values": [{"measurement": "pEC50 on the activation of LGR8", "setting": "LGR8; HEK293T cells stably expressing LGR8, mean ± S.E., ND = pEC50 not measurable", "result": "9.03 ± 0.05"}, {"measurement": "LGR8-activation activity (result in words)", "setting": "LGR8", "result": "selectively activated"}]}
